Assay results as given in PMC4596688, “Structural determinants of nuclear export signal orientation in binding to exportin CRM1” (eLife, 2015).
pKd: −log10 of the molar value.

What follows are substances tested against Full-length human CRM1 (HsCRM1) (UniProt O14980) (assay: competition differential bleaching monitored with a microscale thermophoresis instrument; MBP-NESs serially diluted from 100 μM to 3 nM with 40 nM FITC-PKI^NES, mixed 1:1 with 300 nM HsCRM1 and 120 μM ScRan-GTP; TB buffer with 15% glycerol, 0.05% Tween-20; 1.5 hr, room temperature). Conditions: not given.
Sequence of Full-length human CRM1 (HsCRM1) (O14980 whole entry): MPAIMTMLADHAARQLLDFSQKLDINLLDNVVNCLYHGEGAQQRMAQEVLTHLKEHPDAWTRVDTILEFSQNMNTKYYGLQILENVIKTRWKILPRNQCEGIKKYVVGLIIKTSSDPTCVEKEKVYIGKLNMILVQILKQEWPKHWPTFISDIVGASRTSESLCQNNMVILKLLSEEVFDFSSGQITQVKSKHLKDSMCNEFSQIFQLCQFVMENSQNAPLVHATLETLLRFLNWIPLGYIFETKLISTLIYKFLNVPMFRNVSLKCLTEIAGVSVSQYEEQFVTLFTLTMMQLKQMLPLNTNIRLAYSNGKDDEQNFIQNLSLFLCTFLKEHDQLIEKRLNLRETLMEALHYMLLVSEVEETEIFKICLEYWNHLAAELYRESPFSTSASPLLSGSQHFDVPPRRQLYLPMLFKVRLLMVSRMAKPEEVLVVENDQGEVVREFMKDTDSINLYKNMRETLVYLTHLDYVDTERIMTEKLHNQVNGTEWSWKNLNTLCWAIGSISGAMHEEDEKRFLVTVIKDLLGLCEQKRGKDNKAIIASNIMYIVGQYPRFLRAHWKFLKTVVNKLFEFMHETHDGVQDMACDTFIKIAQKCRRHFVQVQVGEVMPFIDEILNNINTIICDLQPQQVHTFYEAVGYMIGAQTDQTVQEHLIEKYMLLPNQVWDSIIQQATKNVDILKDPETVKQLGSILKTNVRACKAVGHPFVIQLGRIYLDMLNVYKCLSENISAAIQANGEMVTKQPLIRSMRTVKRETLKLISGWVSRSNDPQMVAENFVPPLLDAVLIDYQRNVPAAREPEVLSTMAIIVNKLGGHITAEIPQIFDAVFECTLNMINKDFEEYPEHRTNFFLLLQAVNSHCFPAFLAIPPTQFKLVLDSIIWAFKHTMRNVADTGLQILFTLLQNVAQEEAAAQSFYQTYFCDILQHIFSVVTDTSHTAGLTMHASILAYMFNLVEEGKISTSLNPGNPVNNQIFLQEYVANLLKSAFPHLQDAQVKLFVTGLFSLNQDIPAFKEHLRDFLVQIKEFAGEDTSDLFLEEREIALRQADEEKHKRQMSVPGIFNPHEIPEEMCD

pKd | Substance
6.23 | MBP-CPEB4^NES (peptide)
6.11 | MBP-CPEB4^NES-R (peptide)
5.66 | MBP-hRio2^NES (peptide)
5.62 | MBP-hRio2^NES-R (peptide)

The substances below were run against Full-length human CRM1 (HsCRM1) (UniProt O14980) (assay: GST pull-down, SDS/PAGE band intensity). Conditions: excess ScRanGTP; triplicate experiments; parent: est. 100; read off a plot.

Substance | percent of parent
GST-hRio2NES-R F13P | 33%
GST-hRio2NES-R F13W | 31%
GST-hRio2NES-R M11A | 17%
GST-hRio2NES-R M11I | 57%
GST-hRio2NES-R M11V | 17%
GST-hRio2NES-R M11W | 80%
GST-hRio2NES-R M11Y | 10%

Results, then the substance that gave them:

percent of parent | Substance
17% | GST-hRio2NES-R F13A
110% | GST-hRio2NES-R F13M
17% | GST-hRio2NES-R F13Y
53% | GST-hRio2NES-R M11F
15% | GST-hRio2NES-R M11P
